Measured values published in patent publication US20060009380A1 (L OREAL, published 2006).

Target: T1, transglutaminase 3 (human, UniProt Q08188 2-693, limits assumed)
T1 sequence (looked up): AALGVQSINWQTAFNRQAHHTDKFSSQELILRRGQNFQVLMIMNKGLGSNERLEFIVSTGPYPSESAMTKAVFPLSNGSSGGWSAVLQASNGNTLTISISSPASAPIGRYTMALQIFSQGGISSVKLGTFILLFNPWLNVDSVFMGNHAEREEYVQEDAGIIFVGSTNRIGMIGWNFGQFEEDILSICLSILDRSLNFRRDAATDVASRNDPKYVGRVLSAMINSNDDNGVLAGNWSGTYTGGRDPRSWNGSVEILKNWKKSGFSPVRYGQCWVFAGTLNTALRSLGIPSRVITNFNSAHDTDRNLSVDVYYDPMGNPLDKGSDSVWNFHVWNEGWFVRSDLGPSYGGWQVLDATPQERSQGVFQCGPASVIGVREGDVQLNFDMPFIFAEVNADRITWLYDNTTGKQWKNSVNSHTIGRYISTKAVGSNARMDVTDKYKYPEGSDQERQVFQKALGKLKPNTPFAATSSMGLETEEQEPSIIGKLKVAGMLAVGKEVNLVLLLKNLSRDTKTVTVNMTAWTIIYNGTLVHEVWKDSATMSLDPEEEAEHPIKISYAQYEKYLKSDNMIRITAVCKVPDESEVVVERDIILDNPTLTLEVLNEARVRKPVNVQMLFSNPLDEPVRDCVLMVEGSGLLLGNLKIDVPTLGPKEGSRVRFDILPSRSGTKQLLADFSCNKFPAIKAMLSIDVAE
Experiment: affinity chromatography: CLSP on CNBr-sepharose, human epidermis extract loaded with calcium chloride, eluted with EDTA, held protein sequenced
Experimental: The coupling efficiency was 0.95 mg of polypeptide per milliliter of balls. Human epidermis (0.83 g of abdominal skin obtained from plastic surgery and 100 g of plantar stratum corneum) was homogenized with polytron in 10 ml and 120 ml respectively of 10 mmol of Hepes buffer, pH 7.4, containing 150 mmol of sodium chloride, 0.1% (weight/volume) of triton X100 and a mixture of protease inhibitors (Complete™ EDTA-free of Roche Molecular diluted with […] of depepstatin).
The suspension is then centrifuged at 10,000 g for 10 minutes at 4° C. The supernatant is filtered at 0.22 and adjusted with 2.5 mmol of calcium chloride before passing at ambient temperature through the affinity column. The columns are then washed with 10 volumes of 10 mmol Hepes buffer, pH 7.4, containing 150 mmol of sodium chloride, 0.1% (weight/volume) of triton X100 and a mixture of protease inhibitors. The elution is carried out by using the same buffer that contains 5 mmol of EDTA instead of 2 mmol of calcium chloride.
The eluted proteins are subjected to a denaturing gel electrophoresis (SDS-PAGE) and after migration, they are colored with silver with a silver coloration kit of the Amersham Pharmacia Biotech Company and according to the recommendations of the manufacturer.

binding result: binds
B1: CLSP (calmodulin-like skin protein), the polypeptide of the invention (other)
chain: AGELTPEEEAQYKKAFSAVDTDGNGTINAQELGAALKATGKNLSEAQLRKLISEVDSDGDGEISFQEFLTAARKARAGLEDLQVAFRAFDQDGDGHITVDELRRAMAGLGQPLPQEELDAMIREADVDQDGRVNYEEFARMLAQE
notes: also called skin protein similar to calmodulin
